# Results reported in patent US20090324593A1 (MacroGenics, published 2009).
# Numbering of substitutions follows the chain as printed. In names and notes the source's numbering stands.
# B1: Humanized E16 huE16-3.1 (huE16HC T71A / huE16LC) (antibody, V domains shown)
# VH: QVQLVQSGAEVKKPGASVKVSCKASGYTFTDYWIEWVRQAPGQGLEWMGDILCGTGRTRYNEKLKARVTMTADTSTSTAYMELRSLRSDDTAVYYCARSASYGDYADYWGQGTTVTVSS
# VL: DIVMTQSPDSLAVSLGERATINCKASQDVSTAVAWYQQKPGQPPKLLIYWASTRHTGVPDRFSGSGSGTDFTLTISSLQAEDVAVYYCQQHYTTPLTFGQGTKLEIK
# notes: also called huE16-3 (T71A)/huE16LC; huE16HC-2 T71A/huE16LC
# B2: Humanized E16 huE16-2.1 (huE16HC-2 V67A, M69F, T71A / huE16LC) (antibody, V domains shown)
# VH: B1 VH with V68A, M70F
# VL: B1 VL
# B3: Humanized E16 huE16-2.2 (huE16HC-2 V67A, M69F, T71A / huE16LC-2 Y49S) (antibody, V domains shown)
# VH: B1 VH with V68A, M70F
# VL: B1 VL with Y49S
# B4: Humanized E16 huE16-3.2 (huE16HC T71A / huE16LC-2 Y49S) (antibody, V domains shown)
# VH: B1 VH
# VL: B1 VL with Y49S
# notes: also called hE16-3.2; huE16-2 (T71A)/huE16LC-2 (Y49S)
# Target: T1, WNV E-protein domain III (dIII) (West Nile Virus, UniProt Q9Q6P4 580-705)
# T1 construct: domain: Domain III; also called the antigen; the receptor
# T1 sequence (looked up): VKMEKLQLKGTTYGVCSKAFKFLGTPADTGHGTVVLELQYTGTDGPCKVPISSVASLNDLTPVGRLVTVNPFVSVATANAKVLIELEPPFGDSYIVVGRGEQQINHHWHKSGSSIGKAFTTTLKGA
# Experiment: antigen capture ELISA (sheet title: E9 captured E protein DIII), 2.5 ng/well domain III captured by mouse antibody E9, HRP anti-human IgG F(ab')2 detection
# Experimental: Protocol for antibody-capture ELISA assay: 2.5 ng/well of dIII was captured on 96-well Maxisorp plates by mouse anti-WNV E-protein antibody E9 at room temperature for 2 hours. A serial of two-fold dilution of conditioned medium of chE16, huE16, huE16HC/ch2B6LC or chE16HC/huE16LC starting from 5 ng/well was added to each well. The plate was incubated at room temperature for 1 hour, then binding was detected by HRP conjugated F(ab′)₂ goat anti human IgG F(ab)′₂ specific secondary antibody (Jackson ImmunoResearch, Inc.) at 1:10,000 dilution. After incubation with the secondary antibody for approximately 45 minutes, the plate was developed using a TMB substrate. After 5 minutes incubation, the reaction was stopped by 1% H₂SO₄. The OD₄₅₀ nm was read by SOFTmax program. Between each step, the plates were washed 3 times with PBS/0.1% Tween20. Plates were blocked by 0.5% BSA in PBS/0.1% Tween 20 for 30 mins at room temperature before adding conditioned medium.
# After three days in culture the amount of human IgG expressed was quantitated by ELISA. Binding to WNV E-protein domain III (dIII) was determined by ELISA and antibody-capture ELISA assays as described above.
row,Binder,EC50 (read off the curve)
1,B1,~0.01 µg/mL
2,B2,~0.01 µg/mL
3,B3,~0.01 µg/mL
4,B4,~0.01 µg/mL
